The record followed here is paper PMC6363788, “Crystal structures of human lysosomal EPDR1 reveal homology with the superfamily of bacterial lipoprotein transporters” (Communications Biology, 2019).

This series concerns the molecule itself. The experiment in a line: SEC; in solution; the only column and buffer told are those of the purification step (Superdex200 16/60, 10 mM Tris-HCl pH 8.0, 100 mM NaCl). For orientation: In gel filtration, larger molecules generally elute earlier.

B1: Human EPDR1 (ependymin-related protein 1), glycosylated (natural protein, UniProt Q9UM22-1 38-224, looked up)
chain: APRPCQAPQQWEGRQVMYQQSSGRNSRALLSYDGLNQRVRVLDERKALIPCKRLFEYILLYKDGVMFQIDQATKQCSKMTLTQPWDPLDIPQNSTFEDQYSIGGPQEQITVQEWSDRKSARSYETWIGIYTVKDCYPVQETFTINYSVILSTRFFDIQLGIKDPSVFTPPSTCQMAQLEKMSEDCSW
modifications: N-glycan at Asn130; disulfide bonds C42/C172, C113/C210, C88/C222
notes: EPDR1 (MERP-1; UCC1), human, Uniprot Q9UM22, residues 38-224; The N-terminal tag of the PB-T-PAF plasmid (secretion signal, protein A tag, thrombin site) was removed with thrombin; The six C-terminal histidines have no stated cleavage site, and the protein went through a second Ni2+ step after thrombin, so they were probably kept; also called MERP-1; UCC1; not shown: protein A, N-terminal, cleaved
Consider B1, for which the “stoichiometry N” value was found to be 2.

What is called stoichiometry N is a count of units in the complex or per binding partner.
